This assay concerns the target T1, NgR1 (Mus musculus, UniProt Q99PI8).
T1 chain: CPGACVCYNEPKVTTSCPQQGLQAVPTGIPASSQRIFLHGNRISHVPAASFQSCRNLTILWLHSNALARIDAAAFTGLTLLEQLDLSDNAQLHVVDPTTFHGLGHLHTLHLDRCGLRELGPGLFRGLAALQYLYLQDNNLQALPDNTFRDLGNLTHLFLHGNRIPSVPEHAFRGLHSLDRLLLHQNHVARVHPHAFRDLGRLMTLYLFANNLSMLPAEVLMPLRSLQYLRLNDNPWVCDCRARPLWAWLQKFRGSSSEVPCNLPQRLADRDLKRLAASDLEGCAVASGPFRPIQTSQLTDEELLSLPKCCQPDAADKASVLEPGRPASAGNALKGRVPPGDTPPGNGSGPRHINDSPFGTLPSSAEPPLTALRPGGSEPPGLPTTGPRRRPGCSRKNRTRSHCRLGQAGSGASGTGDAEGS
Description: AP-fusion cell-surface saturation binding.

Among the data in paper PMC3244695 (2012) are Kd values, retold here.

B1: LOTUS (Crtac1B) 29-602 (antibody)
chain: SQRAEPMFTAVTNSVLPPDYDSNPTQLNYGVAVTDVDHDGDFEIVVAGYTGPNLVLKYNRAQNRLVNIAVDERSSPYYALRDRQGNAIGVTACDIDGDGREEIYFLNTNNAFSGVATYTDKLFKFRNNRWEDILSDDVNVARGVASLFAGRSVACVDRTGSGRYSIYIANYAYGDVGPDALIEMDPEASDLSRGILALRDVAAEAGVSKYTAGRGVSVGPILSSSASDIFCDNENGPNFLFHNQGNGTFVDTAASAGVDDPHQHGRGVALADFNRDGKVDIVYGNWNGPHRLYLQMSAHGKVRFRDIASPKFSTPSPVRTVIAADFDNDQELEVFFNNIAYRSSSANRLFRVIRREHGDPLIEELNPGDALEPEGRGTGGVVTDFDGDGMLDLILSHGESMAQPLSVFRGNQGFSNNWLRVVPRTRFGAFARGAKVVLYTKKSGAHLRIIDGGSGYLCEMEPVAHFGLGRDEASSVEVTWPDGKMVSRSVASEEMNSVLEILYPQDEDKLQNTAPLECGQGFSQQDNGHCMDTNECIQFPFVCPRDKPVCVNTYGSYRCRTNKRCNRGYEPNED
modifications: alkaline phosphatase fusion of LOTUS
What is called Kd is the equilibrium constant for the complex coming apart. Higher therefore signals weaker binding. In turn, B1 had a Kd of about 6.8 nM.
